Assay results published in the supplement of paper PMC7877785.
± gives the uncertainty stated by the source.

Experiment: self-splicing fitness, log relative to wild type (ln ratio); higher = more splicing; Tetrahymena group I intron in knt gene, E. coli kanamycin selection, DiMSum; sequences stand for … in CUCUCU…GGAGGGAAAAGUUAUCAGGCAUGCACCUGGUAGCUAGUCUUUAAACCAAUAGAUUGCAUCGGUUUAAAAGGCAAGACCGUCAAAUUGCGGGAAAGGGGUCAACAGCCGUUCAGUACCAAGUCUCAGGGGAAACUUUGAGAUGGCCUUGCAAAGGGUAUGGUAAUAAGCUGACGGACAUGGUCCUAACCACGCAGCCAAGUCCUAAGUCAACAGAUCUUCUGUUGAUAUGGAUGCAGUUCACAGACUAAAUGUCGGUCGGGGAAGAUGUAUUCUUCUCAUAAGAUAUAGUCGGACCUCUCCUUAAUGGGAGCUAGCGGAUGAAGUGAUGCAACACUGGAGCCGCUGGGAACUAAUUUGUAUGCGAAAGUAUAUUGAUUAGUUUUGGAGUACUCGUGGUCG
How it was run: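 Fitness was computed with DiMSum as the error-weighted combination of replicate fold changes, kanamycin versus none, each normalised to wild type. The library randomised all eight intron nucleotides of the P1ex region, with the intron placed in the knt kanamycin-resistance gene on pET-22b(+) in E. coli BL21(DE3). Six replicate transformations were grown overnight at 37°C or 30°C on LB agar with or without 25 μg/mL kanamycin, plus 100 μg/mL carbenicillin, 50 μM IPTG and 0.2% rhamnose. Pooled colonies were amplicon-sequenced on an Illumina HiSeq 2500.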

UUAUAGCAAUAUUACGGCAA
self-splicing fitness (ln) (30 °C): -0.0783 ± 0.11
self-splicing fitness (ln) (37 °C): -0.348 ± 0.1

UUAUAGCAAUAUUACGGCUG
self-splicing fitness (ln) (30 °C): 0.0456 ± 0.07
self-splicing fitness (ln) (37 °C): 0.442 ± 0.1

UUAUAGCAAUAUUACGUACG
self-splicing fitness (ln) (30 °C): -1.03 ± 0.12
self-splicing fitness (ln) (37 °C): -0.0555 ± 0.17

UUAUAGCAAUAUUACGUAGG
self-splicing fitness (ln) (30 °C): -1.75 ± 0.14
self-splicing fitness (ln) (37 °C): -0.198 ± 0.17

UUAUAGCAAUAUUACGUAGU
self-splicing fitness (ln) (30 °C): -3.03 ± 0.24
self-splicing fitness (ln) (37 °C): -2.71 ± 0.4

UUAUAGCAAUAUUACGUCCA
self-splicing fitness (ln) (30 °C): -1.54 ± 0.26
self-splicing fitness (ln) (37 °C): -0.846 ± 0.29

UUAUAGCAAUAUUACGUCCU
self-splicing fitness (ln) (30 °C): -3.3 ± 0.34
self-splicing fitness (ln) (37 °C): -1.78 ± 0.27

UUAUAGCAAUAUUACGUCUC
self-splicing fitness (ln) (30 °C): -3.25 ± 0.33
self-splicing fitness (ln) (37 °C): -2.13 ± 0.3

UUAUAGCAAUAUUACGUGAA
self-splicing fitness (ln) (30 °C): -1.91 ± 0.18
self-splicing fitness (ln) (37 °C): -0.849 ± 0.17

UUAUAGCAAUAUUACGUGGG
self-splicing fitness (ln) (30 °C): -3.41 ± 0.26
self-splicing fitness (ln) (37 °C): -2.15 ± 0.23

UUCAAGCAAUAUUACGAAAA
self-splicing fitness (ln) (30 °C): -0.341 ± 0.15
self-splicing fitness (ln) (37 °C): -0.222 ± 0.18

UUCAAGCAAUAUUACGAAGA
self-splicing fitness (ln) (30 °C): -2.03 ± 0.19
self-splicing fitness (ln) (37 °C): -1.26 ± 0.19

UUCAAGCAAUAUUACGACCU
self-splicing fitness (ln) (30 °C): -2.33 ± 0.27
self-splicing fitness (ln) (37 °C): -0.916 ± 0.18

UUCAAGCAAUAUUACGACUA
self-splicing fitness (ln) (30 °C): 0.15 ± 0.12
self-splicing fitness (ln) (37 °C): 0.446 ± 0.14

UUCAAGCAAUAUUACGAGGA
self-splicing fitness (ln) (30 °C): -2.22 ± 0.14
self-splicing fitness (ln) (37 °C): -1.43 ± 0.13

UUCAAGCAAUAUUACGCAAA
self-splicing fitness (ln) (30 °C): -1.96 ± 0.16
self-splicing fitness (ln) (37 °C): -0.991 ± 0.15

UUCAAGCAAUAUUACGCACU
self-splicing fitness (ln) (30 °C): 0.0955 ± 0.12
self-splicing fitness (ln) (37 °C): -0.66 ± 0.14

UUCAAGCAAUAUUACGCAGC
self-splicing fitness (ln) (30 °C): -1.85 ± 0.16
self-splicing fitness (ln) (37 °C): -2.72 ± 0.31

UUCAAGCAAUAUUACGCAGU
self-splicing fitness (ln) (30 °C): -3.44 ± 0.27
self-splicing fitness (ln) (37 °C): -3.62 ± 0.42

UUCAAGCAAUAUUACGCAUA
self-splicing fitness (ln) (30 °C): -1.24 ± 0.096
self-splicing fitness (ln) (37 °C): -0.0175 ± 0.1

UUCAAGCAAUAUUACGCCCA
self-splicing fitness (ln) (30 °C): -0.837 ± 0.24
self-splicing fitness (ln) (37 °C): 0.3 ± 0.21

UUCAAGCAAUAUUACGCCGU
self-splicing fitness (ln) (30 °C): -2.25 ± 0.2
self-splicing fitness (ln) (37 °C): -1.46 ± 0.19

UUCAAGCAAUAUUACGCCUC
self-splicing fitness (ln) (30 °C): -1.59 ± 0.14
self-splicing fitness (ln) (37 °C): -1.34 ± 0.16

UUCAAGCAAUAUUACGGAAA
self-splicing fitness (ln) (30 °C): -1.83 ± 0.11
self-splicing fitness (ln) (37 °C): -1.12 ± 0.1

UUCAAGCAAUAUUACGGAAC
self-splicing fitness (ln) (30 °C): -3 ± 0.27

UUCAAGCAAUAUUACGGAGU
self-splicing fitness (ln) (30 °C): -3.82 ± 0.27
self-splicing fitness (ln) (37 °C): -2.56 ± 0.23

UUCAAGCAAUAUUACGGCAU
self-splicing fitness (ln) (30 °C): -1.71 ± 0.065
self-splicing fitness (ln) (37 °C): -0.546 ± 0.075

UUCAAGCAAUAUUACGGCUG
self-splicing fitness (ln) (30 °C): -2.62 ± 0.15
self-splicing fitness (ln) (37 °C): -1.52 ± 0.2

UUCAAGCAAUAUUACGGGAC
self-splicing fitness (ln) (30 °C): -2.58 ± 0.16
self-splicing fitness (ln) (37 °C): -2.43 ± 0.28

UUCAAGCAAUAUUACGGUAA
self-splicing fitness (ln) (30 °C): -0.679 ± 0.097
self-splicing fitness (ln) (37 °C): 0.0151 ± 0.1

UUCAAGCAAUAUUACGUCUA
self-splicing fitness (ln) (30 °C): -0.495 ± 0.09
self-splicing fitness (ln) (37 °C): 0.538 ± 0.081

UUCAAGCAAUAUUACGUGUC
self-splicing fitness (ln) (30 °C): -2.84 ± 0.11
self-splicing fitness (ln) (37 °C): -2.45 ± 0.14

UUCCAGCAAUAUUACGACUU
self-splicing fitness (ln) (30 °C): -1.5 ± 0.18
self-splicing fitness (ln) (37 °C): -0.653 ± 0.2

UUCCAGCAAUAUUACGAGUA
self-splicing fitness (ln) (30 °C): -1.12 ± 0.07
self-splicing fitness (ln) (37 °C): 0.0282 ± 0.078

UUCCAGCAAUAUUACGCACC
self-splicing fitness (ln) (30 °C): -2.48 ± 0.3
self-splicing fitness (ln) (37 °C): -1.55 ± 0.26

UUCCAGCAAUAUUACGCCAC
self-splicing fitness (ln) (37 °C): -1.86 ± 0.34

UUCCAGCAAUAUUACGGACU
self-splicing fitness (ln) (30 °C): -2.17 ± 0.14
self-splicing fitness (ln) (37 °C): -0.74 ± 0.15

UUCCAGCAAUAUUACGGCCU
self-splicing fitness (ln) (30 °C): -4.05 ± 0.42
self-splicing fitness (ln) (37 °C): -1.58 ± 0.17

UUCCAGCAAUAUUACGGGGU
self-splicing fitness (ln) (30 °C): -3.02 ± 0.12
self-splicing fitness (ln) (37 °C): -2.81 ± 0.17

UUCCAGCAAUAUUACGGUAU
self-splicing fitness (ln) (30 °C): -2.13 ± 0.11
self-splicing fitness (ln) (37 °C): -1.5 ± 0.12

UUCCAGCAAUAUUACGGUCA
self-splicing fitness (ln) (30 °C): -0.23 ± 0.084
self-splicing fitness (ln) (37 °C): 0.239 ± 0.1

UUCCAGCAAUAUUACGGUCG
self-splicing fitness (ln) (30 °C): -0.395 ± 0.081
self-splicing fitness (ln) (37 °C): 0.623 ± 0.11

UUCCAGCAAUAUUACGGUGG
self-splicing fitness (ln) (30 °C): -3.89 ± 0.27
self-splicing fitness (ln) (37 °C): -3.15 ± 0.24

UUCCAGCAAUAUUACGGUUA
self-splicing fitness (ln) (30 °C): 0.496 ± 0.085
self-splicing fitness (ln) (37 °C): 0.423 ± 0.087

UUCCAGCAAUAUUACGUAAG
self-splicing fitness (ln) (30 °C): -1.42 ± 0.066
self-splicing fitness (ln) (37 °C): -0.28 ± 0.095

UUCCAGCAAUAUUACGUAAU
self-splicing fitness (ln) (30 °C): -2.36 ± 0.11
self-splicing fitness (ln) (37 °C): -0.639 ± 0.12

UUCCAGCAAUAUUACGUAUA
self-splicing fitness (ln) (30 °C): -1.01 ± 0.17
self-splicing fitness (ln) (37 °C): -1.26 ± 0.16

UUCCAGCAAUAUUACGUCAA
self-splicing fitness (ln) (30 °C): -1.3 ± 0.1
self-splicing fitness (ln) (37 °C): -0.233 ± 0.12

UUCCAGCAAUAUUACGUGAU
self-splicing fitness (ln) (30 °C): -1.08 ± 0.044
self-splicing fitness (ln) (37 °C): -0.294 ± 0.063

UUCCAGCAAUAUUACGUUUG
self-splicing fitness (ln) (30 °C): -4.67 ± 0.46
self-splicing fitness (ln) (37 °C): -2.83 ± 0.24

UUCGAGCAAUAUUACGACAA
self-splicing fitness (ln) (30 °C): -0.778 ± 0.23
self-splicing fitness (ln) (37 °C): 0.45 ± 0.23

UUCGAGCAAUAUUACGACCU
self-splicing fitness (ln) (30 °C): -1.7 ± 0.43
self-splicing fitness (ln) (37 °C): 1.25 ± 0.38

UUCGAGCAAUAUUACGACGC
self-splicing fitness (ln) (37 °C): -2.67 ± 0.48

UUCGAGCAAUAUUACGAGAC
self-splicing fitness (ln) (30 °C): -0.119 ± 0.49

UUCGAGCAAUAUUACGAGUU
self-splicing fitness (ln) (30 °C): -1.62 ± 0.18
self-splicing fitness (ln) (37 °C): -0.549 ± 0.17

UUCGAGCAAUAUUACGAUGG
self-splicing fitness (ln) (30 °C): -3.47 ± 0.26
self-splicing fitness (ln) (37 °C): -1.45 ± 0.33

UUCGAGCAAUAUUACGCAAU
self-splicing fitness (ln) (37 °C): -2.13 ± 0.43

UUCGAGCAAUAUUACGCGUG
self-splicing fitness (ln) (30 °C): -1.06 ± 0.13
self-splicing fitness (ln) (37 °C): -0.676 ± 0.14

UUCGAGCAAUAUUACGGAGU
self-splicing fitness (ln) (37 °C): -2.26 ± 0.32

UUCGAGCAAUAUUACGGAUC
self-splicing fitness (ln) (37 °C): -1.85 ± 0.48

UUCGAGCAAUAUUACGGAUG
self-splicing fitness (ln) (30 °C): -3.22 ± 0.38
self-splicing fitness (ln) (37 °C): -2.86 ± 0.32

UUCGAGCAAUAUUACGGCAU
self-splicing fitness (ln) (30 °C): -2.95 ± 0.27
self-splicing fitness (ln) (37 °C): -1.44 ± 0.19

UUCGAGCAAUAUUACGGCGU
self-splicing fitness (ln) (30 °C): -1.44 ± 0.16
self-splicing fitness (ln) (37 °C): -0.438 ± 0.19

UUCGAGCAAUAUUACGGGCA
self-splicing fitness (ln) (30 °C): -2.27 ± 0.17
self-splicing fitness (ln) (37 °C): -0.711 ± 0.15

UUCGAGCAAUAUUACGGUGG
self-splicing fitness (ln) (30 °C): -3.36 ± 0.27
self-splicing fitness (ln) (37 °C): -1.07 ± 0.19

UUCGAGCAAUAUUACGGUUU
self-splicing fitness (ln) (30 °C): -4.44 ± 0.36
self-splicing fitness (ln) (37 °C): -1.93 ± 0.22

UUCGAGCAAUAUUACGUCGG
self-splicing fitness (ln) (30 °C): -2.96 ± 0.28
self-splicing fitness (ln) (37 °C): -1.78 ± 0.29

UUCGAGCAAUAUUACGUCUC
self-splicing fitness (ln) (30 °C): -4.02 ± 0.47
self-splicing fitness (ln) (37 °C): -2 ± 0.16

UUCGAGCAAUAUUACGUGAC
self-splicing fitness (ln) (30 °C): -3.65 ± 0.24
self-splicing fitness (ln) (37 °C): -3.28 ± 0.27

UUCGAGCAAUAUUACGUUCG
self-splicing fitness (ln) (30 °C): -3.75 ± 0.24
self-splicing fitness (ln) (37 °C): -2.32 ± 0.27

UUCUAGCAAUAUUACGAAGA
self-splicing fitness (ln) (30 °C): -1.99 ± 0.19
self-splicing fitness (ln) (37 °C): -1.61 ± 0.21

UUCUAGCAAUAUUACGAAGU
self-splicing fitness (ln) (37 °C): -0.603 ± 0.25

UUCUAGCAAUAUUACGAAUC
self-splicing fitness (ln) (37 °C): -1.98 ± 0.25

UUCUAGCAAUAUUACGAAUU
self-splicing fitness (ln) (30 °C): -2.96 ± 0.23
self-splicing fitness (ln) (37 °C): -1.58 ± 0.18

UUCUAGCAAUAUUACGACAU
self-splicing fitness (ln) (30 °C): -2.324 ± 0.019
self-splicing fitness (ln) (37 °C): -1.57 ± 0.034

UUCUAGCAAUAUUACGCAGC
self-splicing fitness (ln) (37 °C): -0.431 ± 0.2

UUCUAGCAAUAUUACGCCAA
self-splicing fitness (ln) (30 °C): -1.75 ± 0.21
self-splicing fitness (ln) (37 °C): -0.272 ± 0.2

UUCUAGCAAUAUUACGCCCG
self-splicing fitness (ln) (30 °C): -1.09 ± 0.27
self-splicing fitness (ln) (37 °C): -0.74 ± 0.4
